According to patent US8143025B2, “Antibodies against vascular endothelial growth factor receptor-1” (ImClone LLC, priority 2004, dated 2012):

Assays:
HuVEGFR-I-Fc = biological target: T1, HuVEGFR-I-Fc (Homo sapiens, UniProt P17948); assay: Plate-bound receptor binding ELISA (Example 2B); conditions: FIG. 32A, 100 ng/well
T1 construct: soluble recombinant VEGFR-I Fc (rhuVEGFR-1 Fc) proteins were purchased from (R&D Systems Inc); purchased R&D Systems Inc
Protocol: (§1) HuVEGFR-I-Fc, mouse VEGFR-I-AP (hnClone Systems) or huVEGFR-2-AP (ImClone Systems) (100 ng/well) was coated on 96 strip-well plates and blocked with 5% milk/PBS. The binding of 18F1 and other anti-human VEGFR-I antibodies or a rat anti-mouse VEGFR-I antibody, MF1 (ImClone Systems, ref. 18), to plate bound VEGFR-I or VEGFR-2 was evaluated as described for the hybridoma supernatant screening above, except that bound antibody was detected with a goat anti-human kappa-HRP antibody (Bio Source International, Camarillo, Calif.) for 18F1 and anti-human VEGFR-2 antibody ICl 1. or a goat anti-rat IgG-HRP antibody (BioSource International) for MF1.

huVEGFR-2-AP = huVEGFR-2-AP (Homo sapiens, UniProt P35968); assay: Plate-bound receptor binding ELISA (Example 2B); conditions: FIG. 32C, 100 ng/well
Sequence of huVEGFR-2-AP (P35968 20-764 limits assumed): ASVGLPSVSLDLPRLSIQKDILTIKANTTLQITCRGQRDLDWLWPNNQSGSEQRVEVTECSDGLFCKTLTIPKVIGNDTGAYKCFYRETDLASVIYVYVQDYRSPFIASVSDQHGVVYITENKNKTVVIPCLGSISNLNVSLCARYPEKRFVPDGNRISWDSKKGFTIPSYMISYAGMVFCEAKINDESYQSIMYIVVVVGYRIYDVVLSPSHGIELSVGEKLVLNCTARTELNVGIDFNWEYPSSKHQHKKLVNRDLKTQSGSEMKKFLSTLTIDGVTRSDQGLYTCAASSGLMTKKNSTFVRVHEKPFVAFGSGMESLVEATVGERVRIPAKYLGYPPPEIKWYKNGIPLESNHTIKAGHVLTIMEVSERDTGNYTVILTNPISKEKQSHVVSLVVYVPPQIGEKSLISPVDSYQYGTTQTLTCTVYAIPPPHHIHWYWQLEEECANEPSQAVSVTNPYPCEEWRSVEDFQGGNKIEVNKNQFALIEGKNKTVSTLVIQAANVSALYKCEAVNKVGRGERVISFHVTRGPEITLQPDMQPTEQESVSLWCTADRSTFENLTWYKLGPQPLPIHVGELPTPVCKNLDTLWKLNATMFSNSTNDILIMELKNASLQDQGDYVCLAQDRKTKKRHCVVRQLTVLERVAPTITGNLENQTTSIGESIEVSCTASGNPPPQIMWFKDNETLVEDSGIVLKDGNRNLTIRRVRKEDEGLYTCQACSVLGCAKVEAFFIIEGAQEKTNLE
Protocol: as §1

mouse VEGFR-I-AP = biological target: T2, mouse VEGFR-I-AP (Mus musculus, UniProt P35969); assay: Plate-bound receptor binding ELISA (Example 2B); conditions: FIG. 32B, 100 ng/well
T2 sequence (P35969 23-759 limits assumed): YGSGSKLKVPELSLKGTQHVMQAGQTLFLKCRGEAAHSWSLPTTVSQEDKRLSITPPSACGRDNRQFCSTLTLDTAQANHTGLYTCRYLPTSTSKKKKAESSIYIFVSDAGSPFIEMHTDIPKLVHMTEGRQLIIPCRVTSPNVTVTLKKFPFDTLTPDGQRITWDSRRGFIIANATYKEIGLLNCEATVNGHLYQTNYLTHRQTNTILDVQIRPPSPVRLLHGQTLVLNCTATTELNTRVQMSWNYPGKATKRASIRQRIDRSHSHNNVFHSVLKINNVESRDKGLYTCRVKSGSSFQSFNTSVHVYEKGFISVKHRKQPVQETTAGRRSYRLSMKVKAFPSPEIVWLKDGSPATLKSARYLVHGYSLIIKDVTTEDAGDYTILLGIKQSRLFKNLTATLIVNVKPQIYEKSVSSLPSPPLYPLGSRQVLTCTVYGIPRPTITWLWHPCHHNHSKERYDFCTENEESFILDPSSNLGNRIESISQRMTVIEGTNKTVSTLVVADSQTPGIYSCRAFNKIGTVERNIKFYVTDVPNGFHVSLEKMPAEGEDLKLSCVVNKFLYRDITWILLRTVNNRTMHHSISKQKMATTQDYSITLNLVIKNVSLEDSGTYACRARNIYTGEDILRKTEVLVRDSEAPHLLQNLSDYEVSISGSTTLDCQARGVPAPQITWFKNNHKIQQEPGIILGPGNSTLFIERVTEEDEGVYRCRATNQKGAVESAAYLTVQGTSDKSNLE
Protocol: as §1

[1] = biological target: T3, VEGFR-I on PAE-VEGFR-I expressing cells (Homo sapiens, UniProt P17948); assay: Surface VEGFR-I blocking assay (125I-VEGF); type: binding; conditions: porcine aorta endothelial cells, FIG. 9
T3 construct: host or cells: porcine aorta endothelial (PAE) cells
T3 sequence (P17948 27-1338): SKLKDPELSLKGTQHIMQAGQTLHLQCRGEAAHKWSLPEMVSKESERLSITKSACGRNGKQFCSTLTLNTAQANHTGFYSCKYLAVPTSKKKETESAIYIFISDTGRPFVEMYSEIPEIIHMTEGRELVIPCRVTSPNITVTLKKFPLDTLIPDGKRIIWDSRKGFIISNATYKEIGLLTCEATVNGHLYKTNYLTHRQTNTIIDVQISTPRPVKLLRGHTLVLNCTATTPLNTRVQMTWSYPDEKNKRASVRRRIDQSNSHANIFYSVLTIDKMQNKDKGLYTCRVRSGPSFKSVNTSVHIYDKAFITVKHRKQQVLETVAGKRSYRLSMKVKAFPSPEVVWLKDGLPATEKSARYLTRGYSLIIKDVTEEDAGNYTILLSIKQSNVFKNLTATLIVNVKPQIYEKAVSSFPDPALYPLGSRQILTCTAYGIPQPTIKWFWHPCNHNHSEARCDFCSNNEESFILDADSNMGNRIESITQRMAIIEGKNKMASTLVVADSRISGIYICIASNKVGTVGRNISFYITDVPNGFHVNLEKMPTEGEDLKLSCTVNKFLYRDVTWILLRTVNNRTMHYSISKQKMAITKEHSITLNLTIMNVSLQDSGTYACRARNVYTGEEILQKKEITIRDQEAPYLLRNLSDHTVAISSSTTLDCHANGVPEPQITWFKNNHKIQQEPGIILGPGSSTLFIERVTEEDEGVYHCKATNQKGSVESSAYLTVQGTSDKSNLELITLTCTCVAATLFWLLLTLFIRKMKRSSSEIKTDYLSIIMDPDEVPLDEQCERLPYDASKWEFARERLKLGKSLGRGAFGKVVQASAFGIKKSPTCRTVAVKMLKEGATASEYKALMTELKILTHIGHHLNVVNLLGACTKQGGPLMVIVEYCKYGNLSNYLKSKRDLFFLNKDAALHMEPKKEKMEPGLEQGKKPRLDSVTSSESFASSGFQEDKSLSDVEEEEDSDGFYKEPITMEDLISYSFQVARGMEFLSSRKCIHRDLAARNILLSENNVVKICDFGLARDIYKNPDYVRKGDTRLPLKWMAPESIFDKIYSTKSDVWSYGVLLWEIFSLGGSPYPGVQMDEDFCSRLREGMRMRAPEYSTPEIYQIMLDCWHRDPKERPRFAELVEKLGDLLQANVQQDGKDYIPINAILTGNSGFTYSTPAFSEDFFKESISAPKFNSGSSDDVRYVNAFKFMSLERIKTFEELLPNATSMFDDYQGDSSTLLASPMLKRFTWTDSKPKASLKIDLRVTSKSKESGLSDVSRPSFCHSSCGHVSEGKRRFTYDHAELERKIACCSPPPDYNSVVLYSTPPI
Protocol: The binding of ^125I-VEGF to VEGFR-I on cell surface was performed using PAE-VEGFR-I expressing cells. […] Confluent cells were incubated in serum- and growth supplement-free Dulbecco's Modified Eagle Medium (DMEM)ZF-12 medium (Invitrogen, Carlsbad, Calif.) for 24 hours. Cells were rinsed once with ice-cold DMEMZF-12 medium containing 0.025 M HEPES and 1 mgZml bovine serum albumin (BSA). A serial dilution of anti-VEGFR-I antibody 18F1 or cold VEGF at the concentration of a 200-fold molar excess of labeled VEGF was added to each well in the plate and incubated at 4° C. for 1 hour. After wash, ^125I-VEGF was added at the concentration of 2 ngZml and was incubated at 4° C. for 2 hours on a platform shaker. The cells were washed three times with PBS containing 1 mgZml BSA and 0.25 mM CaCl2, and were incubated for 5 minutes in the presence of 1% Triton X-100, 1 mgZml BSA, and 0.16% NaN3 to remove bound VEGF. The soluble content of each well was counted in a gamma counter. The assays were performed in triplicate in at least three independent experiments and the data were analyzed using Prism GraphPad software 3.03.

T1 sequence (P17948 27-758 limits assumed): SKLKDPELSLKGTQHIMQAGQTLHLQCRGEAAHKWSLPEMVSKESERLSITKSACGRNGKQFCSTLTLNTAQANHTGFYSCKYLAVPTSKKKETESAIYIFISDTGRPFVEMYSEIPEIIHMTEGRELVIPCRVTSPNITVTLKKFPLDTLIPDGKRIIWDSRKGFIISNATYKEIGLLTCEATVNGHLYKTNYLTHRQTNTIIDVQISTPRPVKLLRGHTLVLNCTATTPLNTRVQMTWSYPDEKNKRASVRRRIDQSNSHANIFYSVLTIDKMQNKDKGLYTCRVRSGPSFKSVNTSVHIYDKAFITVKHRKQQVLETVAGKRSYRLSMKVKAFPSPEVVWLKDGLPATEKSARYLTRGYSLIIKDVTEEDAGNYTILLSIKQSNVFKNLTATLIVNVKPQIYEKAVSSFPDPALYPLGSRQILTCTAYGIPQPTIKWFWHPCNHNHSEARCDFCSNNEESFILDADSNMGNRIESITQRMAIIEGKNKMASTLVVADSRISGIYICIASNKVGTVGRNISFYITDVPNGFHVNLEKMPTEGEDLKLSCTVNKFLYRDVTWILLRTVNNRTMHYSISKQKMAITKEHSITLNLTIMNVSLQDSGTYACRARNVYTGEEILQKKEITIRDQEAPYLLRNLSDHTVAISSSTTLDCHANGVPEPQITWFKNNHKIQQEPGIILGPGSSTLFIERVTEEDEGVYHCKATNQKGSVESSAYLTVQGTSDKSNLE

## 18F1: human anti-VEGFR-1 monoclonal antibody clone; VL SEQ ID NO: 16, VH SEQ ID NO: 20 [Clone 18F1]
HuVEGFR-I-Fc
  reactivity with human VEGFR-I: specific reactivity
huVEGFR-2-AP
  reactivity with human VEGFR-2: no cross reactivity
Mouse VEGFR-I-AP
  reactivity with mouse VEGFR-I: no cross reactivity
[1]
  blocking of 125I-VEGF binding to native VEGFR-I: strong blocking activity
